Values quoted from earlier work as cited in patent publication US8618048B2, “Insulin analogues of prolonged activity” (Instytut Biotechnologii I Antybiotyków, priority 2008, dated 2013).

Details: background statement

In the case of “unmodified natural insulin: unmodified natural insulin”, the isoelectric point is given as 5.4.
